{"source": "patent US20100310463A1", "about": "(AFFITECH RESEARCH, published 2010)", "binders": {"B1": {"name": "MT201 IgG (antibody, V domains shown)", "VH": "EVQLLESGGGVVQPGRSLRLSCAASGFTFSSYGMHWVRQAPGKGLEWVAVISYDGSNKYYADSVKGRFTISRDNSKNTLYLQMNSLRAEDTAVYYCAKDMGWGSGWRPYYYYGMDVWGQGTTVTVSS", "VL": "ELQMTQSPSSLSASVGDRVTITCRTSQSISSYLNWYQQKPGQPPKLLIYWASTRESGVPDRFSGSGSGTDFTLTISSLQPEDSATYYCQQSYDIPYTFGQGTKLEIK"}, "B2": {"name": "7-F17 scFv (scFv)", "scFv": "QVQLVQSGAEVKKPGSSVKVSCKASGGTFSSYAISWVRQAPGQGLEWMGGIIPIFGTANYAQKFQGRVTITADESTSTAYMELSSLRSEDTAVYYCARGLLWNYWGQGTLVTVSSKLSGSASAPKLEEGEFSEARVETTLTQSPATLSVSPGERATLSCRASQSVSSNLAWYQQKPGQAPRLLIYGASTRATGIPARFSGSGSGTEFTLTISSLQSEDFAVYYCQQYNNWPPGFTFGPGTKVDIK"}, "B3": {"name": "24-G6 scFv (scFv)", "scFv": "B2 scFv with Q226K, G233A"}, "B4": {"name": "17-C20 scFv (scFv)", "scFv": "B2 scFv with G233M, F234Y, P238Q, D243E"}, "B5": {"name": "MOC31 IgG (antibody, V domains shown)", "VH": "QVKLQQSGPELKKPGETVKISCKASGYTFTNYGMNWVKQAPGKGLKWMGWINTYTGESTYADDFKGRFAFSLETSASAAYLQINNLKNEDTATYFCARFAIKGDYWGQGTTVTVSS", "VL": "DIVLTQSPFSNPVTLGTSASISCRSTKSLLHSNGITYLYWYLQKPGQSPQLLIYQMSNLASGVPDRFSSSGSGTDFTLRISRVEAEDVGVYYCAQNLEIPRTFGGGTKLEIK"}, "B6": {"name": "3-17I scFv (scFv)", "scFv": "QVQLVQSGAEVKKPGSSVKVSCKASGGTFSSYAISWVRQAPGQGLEWMGGIIPIFGTANYAQKFQGRVTITADESTSTAYMELSSLRSEDTAVYYCARGLLWNYWGQGTLVTVSSKLSGSASAPKLEEGEFSEARVEIVMTQSPATLSVSPGERATLSCRASQSVSSNLAWYQQKPGQAPRLIIYGASTTASGIPARFSASGSGTDFTLTISSLQSEDFAVYYCQQYNNWPPAYTFGQGTKLEIK", "notes": "expressed in E. coli TG1 from pHOG21; also called scFv format of 3-17I; not shown: C-terminal c-myc and His6 tags from pHOG21, with their junction residues"}, "B7": {"name": "17-C20 IgG (antibody, V domains shown)", "VH": "QVQLVQSGAEVKKPGSSVKVSCKASGGTFSSYAISWVRQAPGQGLEWMGGIIPIFGTANYAQKFQGRVTITADESTSTAYMELSSLRSEDTAVYYCARGLLWNYWGQGTLVTVSS", "VL": "not shown", "notes": "also called 17-C20 full length IgG"}, "B8": {"name": "12-C15 IgG (antibody, V domains shown)", "VH": "B7 VH", "VL": "not shown", "notes": "also called 12-C15 full length IgG"}, "B9": {"name": "3-17I IgG (antibody, V domains shown)", "VH": "B7 VH", "VL": "EIVMTQSPATLSVSPGERATLSCRASQSVSSNLAWYQQKPGQAPRLIIYGASTTASGIPARFSASGSGTDFTLTISSLQSEDFAVYYCQQYNNWPPAYTFGQGTKLEIKR", "notes": "also called 3-17I full length IgG"}, "B10": {"name": "16-G5 IgG (antibody, V domains shown)", "VH": "B7 VH", "VL": "not shown", "notes": "also called 16-G5 full length IgG"}}, "key": {"[1]": {"target": "T1, EpCAM on the surface of EpCAM-positive tumor cell lines (UniProt P16422 24-314, limits assumed)", "T1 sequence (looked up)": "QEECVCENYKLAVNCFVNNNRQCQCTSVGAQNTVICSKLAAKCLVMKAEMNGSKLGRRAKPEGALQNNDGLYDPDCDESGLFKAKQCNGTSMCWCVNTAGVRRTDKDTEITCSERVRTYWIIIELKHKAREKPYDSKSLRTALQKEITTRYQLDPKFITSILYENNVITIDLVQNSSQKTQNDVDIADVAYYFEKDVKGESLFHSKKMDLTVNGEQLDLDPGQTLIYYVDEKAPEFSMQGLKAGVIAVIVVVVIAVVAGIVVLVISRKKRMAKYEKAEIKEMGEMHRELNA", "experiment": "cell-based or functional assay"}, "human EpCAM-Fc [2]": {"target": "T2, human EpCAM-Fc (human, UniProt P16422 24-265)", "T2 construct": "extracellular domain; also called human EpCAM/Fc fusion; recombinant human EpCAM antigen; not shown: human Fc region from IgG1; limits not readable", "T2 sequence (looked up)": "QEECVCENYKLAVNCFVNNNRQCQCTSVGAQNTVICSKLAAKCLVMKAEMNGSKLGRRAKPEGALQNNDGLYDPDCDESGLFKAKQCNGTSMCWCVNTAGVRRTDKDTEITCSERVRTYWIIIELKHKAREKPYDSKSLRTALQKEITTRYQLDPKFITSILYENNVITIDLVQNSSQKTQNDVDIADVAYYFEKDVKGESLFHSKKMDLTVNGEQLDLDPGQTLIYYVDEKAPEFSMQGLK", "experiment": "ELISA, plate coated with human EpCAM-Fc at 5 µg/ml, scFv detected with mouse anti-cMyc 9E10 and rabbit anti-mouse-HRP, TMB, Abs 450 nm", "procedure": "FIGS. 10A and 10B show ELISA binding analysis of 3-17I scFv, 7-F17 scFv, 17-C20 scFv and 24-G6 scFv to human EpCAM-Fc (FIG. 10A) and to cynomolgus EpCAM-Fc (FIG. 10B). MAXI-Sorb plates were coated with human or cynomolgus EpCAM-Fc at a concentration of 5 μg/ml. The antibody was added in 2-fold dilutions from 667 nM to 3.2 nM.\nFor ELISA of antibodies in scFv format, the MAXI-sorb plate was coated with 5 μg/ml (100 μl per well) of human or cynomolgus EpCAM-Fc in PBS overnight at 4° C. The plates were blocked with 4% skimmed milk (Merck product no 1.15363.0500) in PBS for 2 hrs. […] For detection of bound scFv, a rabbit anti-mouse-HRP antibody (Dako, cat no P0260) was added in 1:3000 dilution in block solution and incubated for 1 hr at room temperature."}, "human EpCAM-Fc [3]": {"target": "T2, human EpCAM-Fc", "experiment": "ELISA, plate coated with human EpCAM-Fc at 1 µg/ml, goat anti-human kappa-HRP, ABTS, Abs 405 nm", "procedure": "(§1) For ELISA of antibodies in IgG format, the MAXI-sorb plate was coated with 1 μg/ml (100 μl per well) of human or cynomolgus EpCAM-Fc in PBS overnight at 4° C. The plates were blocked with 3% BSA in PBS for 2 hrs. The IgGs to be tested were added in 2-fold dilutions from 133 nM to 32 fM and incubated for 1 hr at room temperature. For detection of bound IgG, a goat anti-human kappa-HRP antibody (Southern Biotech, cat no 2060-05) was added in 1:5000 dilution in block solution and incubated for 1 hr at room temperature.\n(§2) The ELISA of antibodies in IgG format was developed using a 1-step ABTS Kit (Thermo Scientific prod #37615) and a 25 min incubation time. The absorbance was measured on a SLT SPECTRA plate reader. The software Prism (GraphPad, San Diego, Calif.) was used to estimate the affinities using a non-linear fit of one-site model on the retrieved ELISA data."}, "[4]": {"target": "T1, EpCAM on the surface of EpCAM-positive …", "experiment": "flow cytometry on Kato III cells, RPE goat anti-human IgG detection, median fluorescence intensity", "procedure": "Flow cytometric analysis was performed to analyze binding of the 3-17I IgG to EpCAM-positive cells. As positive controls, anti-EpCAM chimeric (mouse variable/human constant domains) and fully human antibodies, MOC31 and MT201, respectively, were used.\nThe anti-green fluorescent protein (GFP) antibody was used as a negative control. For flow cytometry, Kato III cells (ATCC number (gastric carcinoma, ATCC number HTB-103)) were grown under standard conditions, harvested from the culture flasks, washed 2 times with PBS, re-suspended in PBS with 0.2% BSA and 0.09% NaN₃ and finally distributed at 1×10⁵ cells per well into V-shaped 96-well plates (Greiner Bio-One, Frickenhausen, Germany). Cells were centrifuged at 400×g for 5 min and then incubated at 4° C. for 45 min with 50 μL of each different antibody dilution (all dilutions made in PBS with 0.2% BSA and 0.09% NaN₃). After washing in PBS with 0.2% BSA and 0.09% NaN₃, the cells were stained with 10 μg/mL of RPE-conjugated goat anti-human IgG (AbDSerotec, Düsseldorf, Germany) for 30 min at 4° C. The stained cells were washed, re-suspended in 200 μL PBS with 0.2% BSA and 0.09% NaN₃ and transferred to a U-shaped 96-well plate (Corning, Schiphol-Rijk, The Netherlands) for analysis on EasyCyte flow cytometer (Guava Technologies, Hayward, Calif., USA)."}, "cynomolgus EpCAM-Fc": {"target": "T3, cynomolgus EpCAM-Fc (cynomolgus; human, UniProt P01857 99-330 = IgG part)", "T3 construct": "also called Cynomolgus EpCAM/Fc fusion; recombinant cynomolgus EpCAM antigen", "T3 sequence (P01857 other isoform, or with tags, fused parts or gaps limits assumed, form in doubt)": "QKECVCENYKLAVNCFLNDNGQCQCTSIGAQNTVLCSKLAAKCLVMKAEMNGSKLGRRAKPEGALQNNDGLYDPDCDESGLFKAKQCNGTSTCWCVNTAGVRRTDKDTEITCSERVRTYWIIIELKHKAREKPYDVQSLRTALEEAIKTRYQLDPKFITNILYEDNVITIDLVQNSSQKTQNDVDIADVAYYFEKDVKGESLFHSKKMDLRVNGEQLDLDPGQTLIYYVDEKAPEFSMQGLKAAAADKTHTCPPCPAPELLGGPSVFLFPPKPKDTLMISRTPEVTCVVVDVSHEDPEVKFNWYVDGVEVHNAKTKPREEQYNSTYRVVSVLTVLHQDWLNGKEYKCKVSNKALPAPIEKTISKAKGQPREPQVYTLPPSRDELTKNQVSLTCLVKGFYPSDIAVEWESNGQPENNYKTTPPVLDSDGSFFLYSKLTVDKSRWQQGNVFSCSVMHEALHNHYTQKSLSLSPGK", "experiment": "ELISA, plate coated with cynomolgus EpCAM-Fc at 1 µg/ml, goat anti-human kappa-HRP, ABTS, Abs 405 nm", "procedure": "as §1, §2"}, "human EpCAM-Fc [5]": {"target": "T2, human EpCAM-Fc", "experiment": "SPR, BIAcore T100, EpCAM-Fc coupled to CM5 chip (100 RU), 37 °C, 1:1 Langmuir model; SPR (BIAcore T100), 37 C, native EpCAM-Fc on the CM5 chip", "procedure": "Binding of 3-17I to human and cynomolgus monkey EpCAM was analyzed using surface plasmon resonance (SPR) on a BIAcore T100 (BIAcore, Inc, Piscataway, N.J.). The extracellular domains of human or cynomolgus monkey EpCAM fused to human Fc (IgG1), were coupled to a CM5 chip (BIAcore, Inc, Piscataway, N.J.) at density of 100 RU. The SPR studies were performed using standard techniques at 37° C. with a flow rate of 50 μl/min. The data were analyzed using the 1:1 Langmuir binding model of the BIAcore software."}}, "note": "Where a chain is given by its changes, count along the chain named.", "data": [{"binder": "B1", "values": [{"measurement": "ADCC EC50, BT-474 cells, human PBMC, E:T 20:1", "setting": "[1]", "result": 382, "unit": "ng/mL"}, {"measurement": "ADCC EC50, MDA-MB-453 cells, human PBMC, E:T 20:1", "setting": "[1]", "result": 7, "unit": "ng/mL"}, {"measurement": "CDC EC50, KATO III cells, human serum", "setting": "[1]", "result": 76, "unit": "ng/mL"}, {"measurement": "CDC EC50, MT-3 cells, human serum", "setting": "[1]", "result": 89, "unit": "ng/mL"}, {"measurement": "CDC: fold higher antibody concentration needed than for 3-17I IgG (ratio of the EC50 values; KATO III and MT-3 cells, human serum)", "setting": "[1]", "result": 250, "unit": "fold"}]}, {"binder": "B2", "values": [{"measurement": "binding result", "setting": "human EpCAM-Fc [2]", "result": "binds"}]}, {"binder": "B3", "values": [{"measurement": "binding result", "setting": "human EpCAM-Fc [2]", "result": "binds"}]}, {"binder": "B4", "values": [{"measurement": "binding result", "setting": "human EpCAM-Fc [2]", "result": "binds"}]}, {"binder": "B5", "values": [{"measurement": "EC50 (read off the curve)", "setting": "human EpCAM-Fc [3]", "result": "~1", "unit": "nM"}, {"measurement": "EC50 (read off the curve)", "setting": "[4]", "result": "~300", "unit": "ng/mL"}]}, {"binder": "B6", "values": [{"measurement": "binding result", "setting": "human EpCAM-Fc [2]", "result": "binds"}]}, {"binder": "B7", "values": [{"measurement": "binding result", "setting": "human EpCAM-Fc [3]", "result": "binds"}]}, {"binder": "B8", "values": [{"measurement": "binding result", "setting": "human EpCAM-Fc [3]", "result": "binds"}]}, {"binder": "B9", "values": [{"measurement": "EC50 (read off the curve)", "setting": "human EpCAM-Fc [3]", "result": "~0.7", "unit": "nM"}, {"measurement": "EC50 (read off the curve)", "setting": "[4]", "result": "~100", "unit": "ng/mL"}, {"measurement": "EC50 (read off the curve)", "setting": "cynomolgus EpCAM-Fc", "result": "~0.6", "unit": "nM"}, {"measurement": "Kd", "setting": "human EpCAM-Fc [5]", "result": 1, "unit": "nM"}, {"measurement": "koff", "setting": "human EpCAM-Fc [5]", "result": 0.03, "unit": "s⁻¹"}, {"measurement": "kon", "setting": "human EpCAM-Fc [5]", "result": "3e+07", "unit": "M⁻¹ s⁻¹"}, {"measurement": "ADCC EC50, BT-474 cells, human PBMC, E:T 20:1", "setting": "[1]", "result": 0.12, "unit": "ng/mL"}, {"measurement": "ADCC EC50, MDA-MB-231 cells, human PBMC, E:T 20:1", "setting": "[1]", "result": 15, "unit": "ng/mL"}, {"measurement": "ADCC EC50, MDA-MB-453 cells, human PBMC, E:T 20:1", "setting": "[1]", "result": 0.08, "unit": "ng/mL"}, {"measurement": "CDC EC50, KATO III cells, human serum", "setting": "[1]", "result": 0.28, "unit": "ng/mL"}, {"measurement": "CDC EC50, MT-3 cells, human serum", "setting": "[1]", "result": 0.38, "unit": "ng/mL"}]}, {"binder": "B10", "values": [{"measurement": "binding result", "setting": "human EpCAM-Fc [3]", "result": "binds"}]}]}
